{"source": "paper PMC3942479", "target": "Full-length Human cytomegalovirus glycoprotein B (FL-gB), Strep-tagged (Human cytomegalovirus (FIX7 BAC))", "test": "negative-stain electron microscopy; purified FL-gB on a glow-discharged carbon grid, 2% uranyl formate, 2D class averages", "data": [{"substance": "Full-length Human cytomegalovirus glycoprotein B (FL-gB), Strep-tagged (natural protein)", "values": [{"measurement": "stoichiometry N", "result": 3}]}]}
